Experimental data: publication PMC12416549 (2024)
Substitutions are numbered along the chain they refer to. Names and notes keep the numbering of the source.

T1: TNFR1 (Homo sapiens, UniProt P19438)
T1 chain: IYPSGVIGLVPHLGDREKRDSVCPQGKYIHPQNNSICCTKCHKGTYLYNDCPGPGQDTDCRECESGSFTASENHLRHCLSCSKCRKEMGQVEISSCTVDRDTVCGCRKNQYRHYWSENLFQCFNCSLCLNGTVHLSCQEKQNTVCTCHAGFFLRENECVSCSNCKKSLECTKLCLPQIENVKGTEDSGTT

B1: A9F (designed binder)
chain: SMEEEVEKFAKEYEKKKKEAIEKHLEKLKAKDKEAAERFLKELEEAAKEYAKDEAKTMSEEEAKRRAKKYKEKVLLSELSEEEQKEIKEAEEKLVRTILKYVEEAAK
B2: E45I (designed binder)
chain: B1 chain with F9A, E45I
B3: K64P (designed binder)
chain: B1 chain with F9A, K64P
B4: I21E (designed binder)
chain: B1 chain with F9A, I21E
B5: E3F (designed binder)
chain: B1 chain with E3F, F9A
B6: E37I (designed binder)
chain: B1 chain with F9A, E37I
B7: A106N (designed binder)
chain: B1 chain with F9A, A106N
B8: K48Q (designed binder)
chain: B1 chain with F9A, K48Q
B9: I87Y (designed binder)
chain: B1 chain with F9A, I87Y
B10: K16F (designed binder)
chain: B1 chain with F9A, K16F
B11: E78A (designed binder)
chain: B1 chain with F9A, E78A
B12: A67T (designed binder)
chain: B1 chain with F9A, A67T
B13: K64E (designed binder)
chain: B1 chain with F9A, K64E
B14: L75E (designed binder)
chain: B1 chain with F9A, L75E
B15: K68D (designed binder)
chain: B1 chain with F9A, K68D
B16: E44F (designed binder)
chain: B1 chain with F9A, E44F
B17: K17Y (designed binder)
chain: B1 chain with F9A, K17Y
B18: M2H (designed binder)
chain: B1 chain with M2H, F9A
B19: R96Q (designed binder)
chain: B1 chain with F9A, R96Q
B20: R66W (designed binder)
chain: B1 chain with F9A, R66W
B21: A106M (designed binder)
chain: B1 chain with F9A, A106M
B22: K11G (designed binder)
chain: B1 chain with F9A, K11G
B23: K17V (designed binder)
chain: B1 chain with F9A, K17V
B24: A55C (designed binder)
chain: B1 chain with F9A, A55C
B25: K27E (designed binder)
chain: B1 chain with F9A, K27E
B26: M58H (designed binder)
chain: B1 chain with F9A, M58H
B27: L79H (designed binder)
chain: B1 chain with F9A, L79H
B28: A36L (designed binder)
chain: B1 chain with F9A, A36L
B29: E92K (designed binder)
chain: B1 chain with F9A, E92K
B30: L43C (designed binder)
chain: B1 chain with F9A, L43C
B31: E104D (designed binder)
chain: B1 chain with F9A, E104D
B32: T97P (designed binder)
chain: B1 chain with F9A, T97P
B33: L40I (designed binder)
chain: B1 chain with F9A, L40I
B34: E26D (designed binder)
chain: B1 chain with F9A, E26D
B35: A55K (designed binder)
chain: B1 chain with F9A, A55K
B36: A30C (designed binder)
chain: B1 chain with F9A, A30C
B37: E78G (designed binder)
chain: B1 chain with F9A, E78G
B38: V74P (designed binder)
chain: B1 chain with F9A, V74P
B39: E42W (designed binder)
chain: B1 chain with F9A, E42W
B40: F39E (designed binder)
chain: B1 chain with F9A, F39E
B41: E34Q (designed binder)
chain: B1 chain with F9A, E34Q
B42: L99M (designed binder)
chain: B1 chain with F9A, L99M
B43: T57D (designed binder)
chain: B1 chain with F9A, T57D
B44: Y13I (designed binder)
chain: B1 chain with F9A, Y13I
B45: K56L (designed binder)
chain: B1 chain with F9A, K56L
B46: E54F (designed binder)
chain: B1 chain with F9A, E54F
B47: V102T (designed binder)
chain: B1 chain with F9A, V102T
B48: E86G (designed binder)
chain: B1 chain with F9A, E86G
B49: D32L (designed binder)
chain: B1 chain with F9A, D32L
B50: E4Y (designed binder)
chain: B1 chain with E4Y, F9A
B51: E49A (designed binder)
chain: B1 chain with F9A, E49A
B52: A67V (designed binder)
chain: B1 chain with F9A, A67V
B53: R96Y (designed binder)
chain: B1 chain with F9A, R96Y
B54: E91G (designed binder)
chain: B1 chain with F9A, E91G
B55: K18D (designed binder)
chain: B1 chain with F9A, K18D
B56: A36E (designed binder)
chain: B1 chain with F9A, A36E
B57: A20C (designed binder)
chain: B1 chain with F9A, A20C
B58: V102A (designed binder)
chain: B1 chain with F9A, V102A
B59: Q84D (designed binder)
chain: B1 chain with F9A, Q84D

Biological target: T1, TNFR1
Assay: yeast display SC50

apparent Kd (screen) [nM] | Binder
0.718 | B1
2.73 | B2
2.73 | B3
0.539 | B4
20.2 | B5
0.956 | B6
1.05 | B7
0.446 | B8
12.5 | B9
0.446 | B10
2.48 | B11
20.2 | B12
0.593 | B13
2.73 | B14
1.27 | B15
1.69 | B16
0.446 | B17
0.49 | B18
1.4 | B19
8.56 | B20

apparent Kd (screen) [nM] | Binder
3.99 | B21
0.446 | B22
0.539 | B23
11.4 | B24
0.956 | B25
7.78 | B26
13.8 | B27
1.05 | B28
12.5 | B29
0.49 | B30
0.956 | B31
7.07 | B32
0.79 | B33
0.446 | B34
6.43 | B35
0.869 | B36
3 | B37
0.446 | B38
0.49 | B39
4.83 | B40

apparent Kd (screen) [nM] | Binder
0.446 | B41
3 | B42
13.8 | B43
11.4 | B44
1.05 | B45
0.405 | B46
0.446 | B47
1.16 | B48
2.73 | B49
1.16 | B50
2.73 | B51
7.78 | B52
3.99 | B53
9.41 | B54
0.956 | B55
0.446 | B56
0.718 | B57
0.49 | B58
3.63 | B59
